This is an account of results in patent US20110189234A1.

This test concerns the target Tail-T(ii)-MH chimeric adenovirus spike protein (adenovirus serotype 5; reovirus type 3 Dearing) (UniProt P11818).

The substance “anti-His antibody (penta-His MAb; Qiagen)” returned a transduction of 293HissFv.rec cells (luciferase activity) of 90%.
